One series has as its target T1, mouse IL-22 (Mus musculus, UniProt Q9JJY9).
T1 sequence (Q9JJY9 34-179): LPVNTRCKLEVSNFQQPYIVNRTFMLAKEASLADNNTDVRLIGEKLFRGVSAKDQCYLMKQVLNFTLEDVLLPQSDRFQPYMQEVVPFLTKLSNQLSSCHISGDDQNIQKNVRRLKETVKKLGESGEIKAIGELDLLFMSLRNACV
Nature of the series: SPR capture assay, affinity to mouse IL-22. The class given is binding. Particulars: mouse IL-22, SPR. As for the experimental part: The affinity of the 10 antibodies of Table 1 was measured by Surface Plasma Resonance (SPR) using a capture assay in PBS buffer to generate binding curves at four different concentrations of each antibody (0.05, 0.1, 0.5, and 1.0 μg/ml). The Ka, Kd and KD values for the mutant antibodies were calculated from the curves for each of the antibodies.
The affinity of the 10 antibodies of Table 1 was measured by Surface Plasma Resonance (SPR) using a capture assay on a SPR-2 instrument (SierraSensiors, Hamburg, Germany). The antigens hIL-22 and mIL-22 were immobilized on chips. The running buffer for the assay contained 10 mM HEPES with a pH of 7.4, 500 mM NaCl, and 0.05% TWEEN® 20. […] The off-rate was measured for 6 minutes. Binding constants were calculated using the curve fitting software Analyzer2 (Sierra Sensors). Sensorgrams were analyzed with the instrument specific software and with BIAevaluation 4.1 software. The binding data were analyzed using the Langmuir 1:1 model (human IL-22) or a model for a heterogeneous ligand ([…]).
The antibodies were tested at four different concentrations of each antibody: 0.33 nM, 0.67 nM, 3.3 nM, 6.7 nM for hIL-22; 1, 2, […] for mIL-22. Antibody CPE-LC-E049K was used as a control.

Series [1] deals with imiquimod (IMQ) induced psoriasis. In kind it is in vivo. From the text: Two anti-IL-22 antibodies of the present invention, CPS02 and CPS09, were used for the treatment of imiquimod (IMQ) induced psoriasis in mice (FIG. 12). The mice were male BALB/c mice, which were an albino, laboratory-bred strain of the house mouse. A total of 70 mice, at a body weight of 18-20 g, were acclimated for 7 days before induction of psoriasis.
The 70 mice were randomized into 7 groups (10 mice in each group). One group (group 1) was used as a negative control to which no imiquimod was administered to the mice, which was instead replaced with Vaseline. […] The other 6 groups (groups 2-7) were dosed topically with imiquimod at a dosage of 82.5 mg/mouse (5% cream) once daily (qd) for 8 consecutive days from day 0 to day 7 (20 mg for the left ear, 62.5 mg for the shaved back) to induce psoriasis. The back skin was shaved to expose an area of 2×3 cm^2. For the Vaseline control group, the Vaseline was also applied at 82.5 mg/mouse once daily (qd) for 8 consecutive days (20 mg for left ear, 62.5 mg for the shaved back) from day 0 to day 7.
Group 2 was a group of psoriasis-induced mice that were untreated to serve as a control group. The treatment period completely overlapped with the imiquimod application period (day 0 to day 7). For group 2, the mice received both imiquimod and […] on each day of the 8-day period (day 0 to day 7). For the groups that received intravenous (I.V.) injection, the imiquimod was applied within one hour after the I.V. injection on days 0 and 3.
Group 3 was treated with the steroid dexamethasone, which is a current therapeutic treatment used for psoriasis. The dexamethasone was topically applied twice a day (BID) for 8 days. Group 4 was treated with phosphate-buffered saline (PBS), which served as a negative control. Group 5 was treated with an isotype control antibody that also served as a negative control. Groups 6-7 were treated with the anti-IL22 antibodies CPS02 (A) and CPS09 (B), respectively. The treatments for Groups 4-7 were administered by a single intravenous (I.V.) injection on each of days 0 and 3. 3 mice in group 6 died on day 0 and 2 died on day 1. On day 3, the I.V. injection dosage for this group was decreased to 10 mg/kg.
During the 8 day treatment period, the ear thickness was measured on days 0, 3, 5 and 7. The body weight and various skin scores were recorded daily. Pictures of the psoriasis sites were taken on days 0, 3, 5 and 7. On days 1 and 4, about 60 μl blood was collected via retro-orbital bleeding over 24 hours and placed in BD Microtainer® tubes coated with dipotassium ethylenediaminetetraacetic acid (K2EDTA). Plasma was then collected (to get at least 20 μl plasma) and stored at −80° C.
Skin scores for erythema, scales and thickness were measured daily according to an established grading system. The erythema, scales and thickness were scored independently on a scale of from 0 to 4: 0 means none, 1 means slight, 2 means moderate, 3 means marked, and 4 means very marked. The cumulative (total) skin score was also calculated.
The effects of the treatments were analyzed statistically using two-way analysis of variance (ANOVA, Bonferroni post-tests) or one-way ANOVA analysis. For comparisons between the treatment groups and the control group, the p value is denoted in FIGS. 13-18 as (*) if less than 0.05, (**) if less than 0.01, or (***) if less than 0.001.

[2] abbreviates: group 6 (10 mice), 20 mg/kg I.V. on day 0.

B1: CPS02: mutant anti-IL-22 antibody binding human and mouse IL-22; light chain LC-06, heavy chain HC-08 (antibody, V domains shown)
VH: QVQLVQSGAEVKKPGASVKVSCKASGYIFRSYWIHWIRQPPGKGLEWIGRIYPGTGRTYYNEKFKGRVTISADKSISTAYLQWSSLKASDTAMYYCARSYDSSVAYWGQGTLVTVSS
VL: AIQLTQSPSSLSASVGDRVTITCSASSSVSYMHWYLQKPGQSPQLLIYKTRKLASGVPSRFSGSGSGTDFTFTISSLEAEDAATYYCQQWSSNPYITFGQGTKVEIKR
In the series with mouse IL-22, B1 came in with a ka of 166000 M·s and a kd of 0.000545 s⁻¹. In addition, in series [1] (IMQ psoriasis mice, days 0-7, in comparison to dexamethasone / PBS (FIG. 13)), the “reduction in body weight of the treated mice” value is “less reduction in body weight”. Also, in series [1] (setting [2]), the “mice died on day 0” value worked out at 3 mice and the “mice died on day 1” value is 2 mice. For the same molecule, the ear skin thickness result in series [1] (vs negative controls (isotype matched antibody, PBS, vehicle) (FIG. 14)) was “less”. The skin erythema score entry in series [1] (vs negative controls (isotype matched antibody, PBS, vehicle) (FIG. 15)) is “lower”. For the same molecule, the skin scale score result in series [1] (vs negative controls (isotype matched antibody, PBS, vehicle) (FIG. 16)) is “lower”. In addition, the skin thickness result in series [1] (vs negative controls (isotype matched antibody, PBS, vehicle) (FIG. 17)) is reported as “lower”. In series [1] (vs negative controls (isotype matched antibody, PBS, vehicle) (FIG. 18)), the total skin score entry is reported as “lower”.

These data come from patent publication US11834472B2, “Anti-IL-22 antibodies, antibody fragments, their immunoconjugates and uses thereof” (BioAtla, Inc., priority 2018, dated 2023).
